Starred links: 1 amine or outer side, 2 acyl side, 3 side chain; linkers in the order of their positions; H or OH if unused. Positions of bridges follow the written chain, without caps; N, C: chain ends. Non-standard residues stand in square brackets, D forms with d. Primed or numbered codes have the meaning given here. No end group written: not given here. Dab(acetyl)″ = 2-amino-4-(acetylamino)butanoic acid, acetyl CH3 carbon bonded to the S of Hcy (S-CH2-C(=O)-NH-), O=C(C[*:3])NCC[C@H](N[*:1])C(=O)[*:2]; Dab(acetyl) = 2-amino-4-acetylamino-butanoic acid residue (N-γ-acetyl-diaminobutyric acid), CC(=O)NCC[C@H](N[*:1])C(=O)[*:2]; Dap(acetyl) = 2-amino-3-acetylamino-propanoic acid residue, CC(=O)NC[C@H](N[*:1])C(=O)[*:2]; COCH2 = acetyl group that carries the bridge; hCys = N[C@@H](CCS)C(=O)O; Dab = NCC[C@H](N)C(=O)O; Dap = NC[C@H](N)C(=O)O; βAla = NCCC(=O)O
Assays:
human integrin αvβ5 [1] = target: T1, human integrin αvβ5 (human, UniProt P06756 31-992; P18084 24-719, limits assumed); test: SPR, Biacore 3000, peptide immobilised; C = KD more than 100 nM and 200 nM or less
T1 construct: Heterodimer flowed as analyte at 30, 100, 300 and 1,000 nM in HEPES buffer with 5 mM MgCl2
T1 sequence (P06756 31-992 limits assumed, chain 1 of 2): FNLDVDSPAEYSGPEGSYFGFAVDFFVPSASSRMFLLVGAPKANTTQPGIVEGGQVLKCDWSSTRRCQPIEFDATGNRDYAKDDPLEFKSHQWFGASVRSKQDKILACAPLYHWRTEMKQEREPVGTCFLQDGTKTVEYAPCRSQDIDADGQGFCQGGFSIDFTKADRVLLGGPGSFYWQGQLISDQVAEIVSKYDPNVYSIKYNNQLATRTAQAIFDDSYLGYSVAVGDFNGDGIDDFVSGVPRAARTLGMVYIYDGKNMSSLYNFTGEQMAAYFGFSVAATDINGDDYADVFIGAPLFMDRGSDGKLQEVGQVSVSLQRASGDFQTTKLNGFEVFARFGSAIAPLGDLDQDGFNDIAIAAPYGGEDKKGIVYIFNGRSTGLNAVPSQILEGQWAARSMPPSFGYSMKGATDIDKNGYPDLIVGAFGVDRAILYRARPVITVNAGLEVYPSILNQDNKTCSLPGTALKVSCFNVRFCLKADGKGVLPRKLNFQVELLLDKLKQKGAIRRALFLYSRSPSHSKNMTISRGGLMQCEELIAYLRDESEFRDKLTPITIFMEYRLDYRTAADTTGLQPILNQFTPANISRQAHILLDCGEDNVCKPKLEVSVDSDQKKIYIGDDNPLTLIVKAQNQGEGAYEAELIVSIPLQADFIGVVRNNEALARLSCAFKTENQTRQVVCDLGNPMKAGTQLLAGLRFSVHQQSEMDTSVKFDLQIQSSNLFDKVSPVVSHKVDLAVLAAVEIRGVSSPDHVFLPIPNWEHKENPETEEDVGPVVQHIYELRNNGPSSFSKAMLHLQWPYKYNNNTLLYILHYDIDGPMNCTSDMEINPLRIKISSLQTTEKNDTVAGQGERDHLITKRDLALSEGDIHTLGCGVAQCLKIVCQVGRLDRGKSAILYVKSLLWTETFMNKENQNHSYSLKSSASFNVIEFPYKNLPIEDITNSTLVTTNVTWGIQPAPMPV
T1 sequence (P18084 24-719 limits assumed, chain 2 of 2): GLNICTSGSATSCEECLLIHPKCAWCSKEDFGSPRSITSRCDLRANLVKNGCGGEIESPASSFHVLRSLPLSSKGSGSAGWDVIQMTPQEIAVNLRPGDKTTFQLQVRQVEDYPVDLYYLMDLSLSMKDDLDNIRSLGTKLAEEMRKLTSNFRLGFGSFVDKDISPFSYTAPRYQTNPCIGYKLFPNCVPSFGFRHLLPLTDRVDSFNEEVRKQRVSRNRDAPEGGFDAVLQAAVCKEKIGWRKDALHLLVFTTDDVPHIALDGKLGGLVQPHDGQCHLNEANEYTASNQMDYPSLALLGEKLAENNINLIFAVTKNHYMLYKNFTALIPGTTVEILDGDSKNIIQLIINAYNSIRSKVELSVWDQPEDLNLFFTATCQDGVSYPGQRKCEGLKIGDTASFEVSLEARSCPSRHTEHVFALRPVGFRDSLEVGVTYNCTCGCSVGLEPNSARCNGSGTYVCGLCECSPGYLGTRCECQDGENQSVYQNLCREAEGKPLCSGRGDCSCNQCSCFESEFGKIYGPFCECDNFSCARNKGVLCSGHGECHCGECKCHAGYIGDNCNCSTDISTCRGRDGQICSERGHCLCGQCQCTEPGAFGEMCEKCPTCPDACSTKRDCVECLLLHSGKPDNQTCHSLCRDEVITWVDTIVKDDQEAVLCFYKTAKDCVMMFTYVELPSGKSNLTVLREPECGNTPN
Protocol: (§1) However, only for the cyclic peptides 125, 126, and 127, in which the number of lysine residues having an amino group as the immobilizing functional group was zero, the amount of the sample solution to be supplied to the sensor chip was set to 500 μL instead of 20 μL. Further, 70 μL of the mixed aqueous solution of 0.2 M EDC and 0.04 M NHS was added to another flow channel of the same sensor chip without immobilizing the sample, and then blocking treatment and washing treatment were carried out. Hereinafter, the obtained immobilization-treated sensor chip is referred to as an “immobilization-treated sensor chip A”.
(§2) After adding human integrin αvβ5 for 10 minutes at 25° C., which was diluted to 30 nM using a HEPES buffer solution to which magnesium chloride was added to 5 mM, in each flow channel of the immobilization-treated sensor chip A prepared in (1) above, the same HEPES buffer solution (containing 5 mM magnesium chloride) was allowed to flow as a running buffer for 30 minutes, and measurement was carried out with Biacore 3000. Then, a regeneration treatment of removing human integrin αvβ5 was carried out by allowing a 0.5 M EDTA aqueous solution to flow through each flow channel for 10 minutes. Further, the above-described measurement process consisting of adding integrin for 10 minutes, allowing a running buffer to flow for 30 minutes, carrying out measurement with Biacore 3000, and carrying out regeneration treatment with 0.5 M EDTA aqueous solution was carried out in the same manner for 100 nM human integrin αvβ5, 300 nM human integrin αvβ5, and 1,000 nM human integrin αvβ5. Dissociation constant between the cyclic peptide and human integrin αvβ5 was calculated from the difference between the value measured by Biacore 3000 in the flow channel immobilized with the cyclic peptide and the value measured by Biacore 3000 in the flow channel unimmobilized with the cyclic peptide, in a case where each concentration of human integrin αvβ5 was allowed to flow, and the integrin binding property was evaluated according to the following evaluation standards. It is preferable that the evaluation result satisfies the evaluation standard A, B, or C.

human integrin αvβ5 [2] = target: T1, human integrin αvβ5; test: SPR, Biacore 3000, peptide immobilised; A = KD 50 nM or less
human integrin αvβ5 [3] = target: T1, human integrin αvβ5; test: SPR, Biacore 3000, peptide immobilised; B = KD more than 50 nM and 100 nM or less
Protocol: as §1, §2

Row | Binder | dissociation constant (KD) (human integrin αvβ5 [2]) [nM] | other results
1 | KKK[βAla][hCys]EPRGDNYR[Dab(acetyl)″]-NH2 (thioether 5-14; N-terminus assumed; SMILES N=C(N)NCCC[C@@H]1NC(=O)[C@H](Cc2ccc(O)cc2)NC(=O)[C@H](CC(N)=O)NC(=O)[C@H](CC(=O)O)NC(=O)CNC(=O)[C@H](CCCNC(=N)N)NC(=O)[C@@H]2CCCN2C(=O)[C@H](CCC(=O)O)NC(=O)[C@@H](NC(=O)CCNC(=O)[C@H](CCCCN)NC(=O)[C@H](CCCCN)NC(=O)[C@@H](N)CCCCN)CCSCC(=O)NCC[C@@H](C(N)=O)NC1=O) [Cyclic peptide 51] |  | dissociation constant (KD) (human integrin αvβ5 [1]): 100 to 200 nM
2 | KKKA[hCys]EPRGDNYR[Dab(acetyl)″]-NH2 (thioether 5-14; N-terminus assumed; SMILES C[C@H](NC(=O)[C@H](CCCCN)NC(=O)[C@H](CCCCN)NC(=O)[C@@H](N)CCCCN)C(=O)N[C@H]1CCSCC(=O)NCC[C@@H](C(N)=O)NC(=O)[C@H](CCCNC(=N)N)NC(=O)[C@H](Cc2ccc(O)cc2)NC(=O)[C@H](CC(N)=O)NC(=O)[C@H](CC(=O)O)NC(=O)CNC(=O)[C@H](CCCNC(=N)N)NC(=O)[C@@H]2CCCN2C(=O)[C@H](CCC(=O)O)NC1=O) [Cyclic peptide 50] |  | dissociation constant (KD) (human integrin αvβ5 [1]): 100 to 200 nM
3 | KKK[Dab(acetyl)]VPRGDNFC (thioether 4-12) [Cyclic peptide 143] | ≤ 50 | 
4 | KKK[hCys]TPRGDTFA[Dab](COCH2)A (thioether 4-13) [Cyclic peptide 159] | ≤ 50 | 
5 | KKK[hCys]VPRGDTFA[Dab](COCH2)A (thioether 4-13) [Cyclic peptide 165] | ≤ 50 | 
6 | KKK[hCys]EPRGDNYR[Dab(acetyl)″]-NH2 (thioether 4-13; N-terminus assumed; SMILES N=C(N)NCCC[C@@H]1NC(=O)[C@H](Cc2ccc(O)cc2)NC(=O)[C@H](CC(N)=O)NC(=O)[C@H](CC(=O)O)NC(=O)CNC(=O)[C@H](CCCNC(=N)N)NC(=O)[C@@H]2CCCN2C(=O)[C@H](CCC(=O)O)NC(=O)[C@@H](NC(=O)[C@H](CCCCN)NC(=O)[C@H](CCCCN)NC(=O)[C@@H](N)CCCCN)CCSCC(=O)NCC[C@@H](C(N)=O)NC1=O) [Cyclic peptide 49] |  | dissociation constant (KD) (human integrin αvβ5 [3]): 50 to 100 nM
7 | KKK[hCys]IPRGDSFA[Dab](COCH2)A (thioether 4-13) [Cyclic peptide 163] | ≤ 50 | 
8 | KKKA[hCys]EPRGDNYR[Dab(acetyl)″] (thioether 5-14) [Cyclic peptide 45] |  | dissociation constant (KD) (human integrin αvβ5 [3]): 50 to 100 nM
9 | KKKA[Dab(acetyl)]VPRGDTFACA (thioether 5-14) [Cyclic peptide 142] | ≤ 50 | 
10 | KKK[Dab(acetyl)]VPRGDTFAC (thioether 4-13) [Cyclic peptide 141] | ≤ 50 | 
11 | KKK[hCys]PRGDNFR[Dab(acetyl)]A (thioether 4-12) [Cyclic peptide 9] |  | dissociation constant (KD) (human integrin αvβ5 [1]): 100 to 200 nM
12 | KKKGXIPRGDXFRXA (not fully specified; KKKG-(Hcy)-IPRGD-(HmS)-FR(Dab(acetyl))A; HmS = homoserine; thioether bond Hcy-Dab(acetyl)) [Cyclic peptide 73] |  | dissociation constant (human integrin αvβ5 [3]): 50 to 100 nM
13 | KKKA[hCys]TPRGDTFA[Dab(acetyl)] (thioether 5-14) [Cyclic peptide 158] | ≤ 50 | 
14 | KKKA[hCys]VPRGDTFA[Dab](COCH2) (thioether 5-14) [Cyclic peptide 164] | ≤ 50 | 
15 | KKKA[hCys]IPRGDSFA[Dab](COCH2) (thioether 5-14) [Cyclic peptide 162] | ≤ 50 | 
16 | KKK[hCys]EPRGDNYR[Dab(acetyl)″] (thioether 4-13) [Cyclic peptide 44] |  | dissociation constant (KD) (human integrin αvβ5 [3]): 50 to 100 nM
17 | KKKA[Dap](COCH2)EPRGDNYRC (thioether 5-14) [Cyclic peptide 166] | ≤ 50 | 
18 | KKK[Dap(acetyl)]EPRGDNYR[hCys]-NH2 (thioether 4-13) [Cyclic peptide 52] |  | dissociation constant (KD) (human integrin αvβ5 [3]): 50 to 100 nM
19 | KKKA[Dap(acetyl)]EPRGDNYR[hCys] (thioether 5-14) [Cyclic peptide 47] |  | dissociation constant (KD) (human integrin αvβ5 [3]): 50 to 100 nM

Row | Binder | dissociation constant (KD) (human integrin αvβ5 [2]) [nM] | other results
20 | KKK[hCys]DPRGDTFA[Dab(acetyl)] (thioether 4-13) [Cyclic peptide 144] | ≤ 50 | 
21 | KKK[hCys]TPRGDTFA[Dab(acetyl)] (thioether 4-13) [Cyclic peptide 147] | ≤ 50 | 
22 | KKK[hCys]EPRGDTFA[Dab(acetyl)] (thioether 4-13) [Cyclic peptide 145] | ≤ 50 | 
23 | KKK[hCys]YPRGDTFA[Dab(acetyl)] (thioether 4-13) [Cyclic peptide 148] | ≤ 50 | 
24 | KKK[hCys]VPRGDTFG[Dab(acetyl)] (thioether 4-13) [Cyclic peptide 152] | ≤ 50 | 
25 | KKK[hCys]VSRGDTFA[Dab(acetyl)] (thioether 4-13) [Cyclic peptide 149] | ≤ 50 | 
26 | KKK[hCys]TTRGDTFA[Dab(acetyl)] (thioether 4-13) [Cyclic peptide 155] | ≤ 50 | 
27 | KKK[hCys]LPRGDTFA[Dab(acetyl)] (thioether 4-13) [Cyclic peptide 146] | ≤ 50 | 
28 | KKK[hCys]TTRGDSFA[Dab(acetyl)] (thioether 4-13) [Cyclic peptide 157] | ≤ 50 | 
29 | KKK[hCys]VPRGDTFS[Dab(acetyl)] (thioether 4-13) [Cyclic peptide 153] | ≤ 50 | 
30 | KKK[hCys]VTRGDTFA[Dab(acetyl)] (thioether 4-13) [Cyclic peptide 150] | ≤ 50 | 
31 | KKK[hCys]VPRGDVFA[Dab(acetyl)] (thioether 4-13) [Cyclic peptide 151] | ≤ 50 | 
32 | KKK[Dap(acetyl)]EPRGDNYR[hCys] (thioether 4-13) [Cyclic peptide 46] |  | dissociation constant (KD) (human integrin αvβ5 [3]): 50 to 100 nM
33 | KKKG[hCys]IPRGDNF[Dab(acetyl)″]A (thioether 5-13) [Cyclic peptide 6] |  | dissociation constant (KD) (human integrin αvβ5 [3]): 50 to 100 nM
34 | KKKA[Dap(acetyl)]EPRGDNYR[hCys]-NH2 (thioether 5-14) [Cyclic peptide 53] |  | dissociation constant (KD) (human integrin αvβ5 [3]): 50 to 100 nM
35 | KKKGXPRGDNFRXA (not fully specified; KKKG-(Hcy)-PRGDNFR(Dab(acetyl))A; thioether bond Hcy-Dab(acetyl)) [Cyclic peptide 8] |  | dissociation constant (KD) (human integrin αvβ5 [3]): 50 to 100 nM
36 | KKKA[hCys]TPRGDTFA[Dab](COCH2)A (thioether 5-14) [Cyclic peptide 160] | ≤ 50 | 
37 | KKKA[hCys]EPRGDSYR[Dab](COCH2)D (thioether 5-14) [Cyclic peptide 33] |  | dissociation constant (KD) (human integrin αvβ5 [1]): 100 to 200 nM
38 | KKKA[hCys]EPRGDNYD[Dab](COCH2)D (thioether 5-14) [Cyclic peptide 35] |  | dissociation constant (KD) (human integrin αvβ5 [1]): 100 to 200 nM

Source: patent US20220089647A1 (FUJIFILM, published 2022)
